In the supplement of paper PMC9170038:

System: MS2 coat protein
Test: apparent KD of MS2 coat protein; designed switch direction (-1 OFF switch, 1 ON switch): -1; higher = weaker reporter binding
Method in brief: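 Three titration conditions were used: no input, 200 uM small-molecule ligand, and an oligonucleotide input. In each, SNAP-549-labelled MS2 coat protein was raised from 0.7 or 1.5 nM, doubling, to 3 µM over designed RNA switches transcribed on Illumina chips by stalled E. coli RNA polymerase. Curve fits of normalised cluster fluorescence gave values whose per-design median over clusters is the apparent KD.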

[1] = Eterna round: R95, input ligand: FMN 200 uM
[2] = Eterna round: R95, input ligand: microRNA oligo, concentration not stated
[3] = Eterna round: R95, input ligand: none
[4] = input ligand: microRNA oligo, concentration not stated

Sequence | apparent KD of MS2 coat protein [1] | apparent KD of MS2 coat protein [2] | apparent KD of MS2 coat protein [3] | apparent KD of MS2 coat protein (input ligand: FMN 200 uM) | apparent KD of MS2 coat protein [4] | apparent KD of MS2 coat protein (input ligand: none)
GAGAAGGUAGGAUAUACGAAGAAAAAGGGUAGAAGAAGAACACAUGAGGAUCACCCAUGUAGAAGGACCAAGAG [Mat - Exclusion 2 - Mod of my Tesla design - D17] (puzzle: Exclusion 2) | 0.038 µM | 0.0215 µM | 0.0225 µM | – | – | –
AAAAGGCAGGGAGGAUAUGCUUACCUGGGUCGUCUUCAGACAUGAGGAUCACCCAUGUAGUCGACGCAGAAGGCCCUCAAAGCC [Mat - Exclusion NG 2 - Mod of JL - D60] (Eterna round: R96, puzzle: Exclusion NG 2) | – | – | – | 0.0826 µM | 0.0389 µM | 0.0541 µM
GGAGCAAGUGUCAGGAUAUCGUGGUCGAUAGAUCACGAGAAGGGACAUGAGGAUCACCCAUGUGCCUCAGCUCC [Mat - Exclusion 4 - Eli Mod - D60] (Eterna round: R97, puzzle: Brourd's mod of Exclusion 4) | – | – | – | 0.736 µM | – | 0.214 µM
GUCAGCUCGUCAGGAUAUACAUGAGGAUCACCCAUGUGAUCAAUAGCAGCUUCGGCUGCAUACAUGUAGAAGGGACGAGCUGAC [ENG2/6-B1] (Eterna round: R96, puzzle: Exclusion NG 2) | – | – | – | 0.0556 µM | 0.0184 µM | 0.0355 µM
AAAGUGCUGCGAGGAUAUACAUGAGGAUCACCCAUGUGGAUGUCUGAGGCAAAGCCUCAGACAAUGUAGAAGGCGCAGUACUAA [Mat - Exclusion NG 2 - Mod of JL - D56] (Eterna round: R96, puzzle: Exclusion NG 2) | – | – | – | 0.0873 µM | 0.0182 µM | 0.027 µM
UUUUAGAGAGGAUAUAUAAUGUGAAACAUGAGGAUCACCCAUGUAAUAUUAUGGAUGUAAAUAGAAGGCUCAAUUA [Mat - Exclusion 5 - JL mod - D13] (puzzle: Exclusion 5) | 0.0285 µM | 0.0304 µM | 0.0263 µM | – | – | –
CUUUUGUGAGGAUAUCAGUAGUAAUAUAAUAGUAUUACUACUGAGAAGGCACAUGAGGAUCACCCAUGUUCCUC [Ex4 344 Omei mod 8] (puzzle: Exclusion 4) | – | 0.0279 µM | – | – | – | –
CUUAAUUGUGACAUGGGUGACAUGAGGAUCACCCAUGUCACAAGCUUUUUGCUCGUCUUAUAAUUAACCCAUGUCAC [Stov1/13-A3] (Eterna round: R97, puzzle: Sensor, turn-off variant 1) | – | – | – | 0.03 µM | – | 0.0334 µM
GGCAAUAACGAGGAUAUCGUAUCGGAAACGAUACGAGAAGGUGUAACAUGAGGAUCACCCAUGUUCCUUAAGCC [Fiskers Ex 6 - 9] (puzzle: Exclusion 6) | – | 0.0235 µM | – | – | – | –
UUUUAACAUGAGGAUCACCCAUGUGAGGAUAUCGAAAUUUAUAUUUAUAUUAAUUAUACGAGAAGGCACAUUUU [JMF 86] (puzzle: Exclusion 1) | – | 0.0655 µM | – | – | – | –
ACCUCACAUGAGGAUCACCCAUGUCAGGAUAUCUAAUGUAGUCGCGUUCCCGACGCUAAGAGAAGGGACAUUAA [EX1 #34] (Eterna round: R97, puzzle: Exclusion 1) | – | – | – | 0.0226 µM | – | 0.0141 µM
UAUUAGCAAGUGAGGUCCCACAUGAGGAUCACCCAUGUGCUCGUCUUAUAAGGUACUGUGACGAUAGUCACGGUACC [Mat - Sensor, turn-off var - Eli Mod - D51] (Eterna round: R97, puzzle: Sensor, turn-off variant 1) | – | – | – | 0.0454 µM | – | 0.0455 µM
UUCGUGUAAGGAUAUACGACCCAUCCCAUUGGGAUGGGCACGUAGAAGGUACAUGAGGAUCACCCAUGUGCUCC [Ceacequa] (Eterna round: R96, puzzle: Exclusion 4) | – | – | – | 0.298 µM | 0.0344 µM | 0.0414 µM
AUGCGACAUGAGGAUCACCCAUGUGAGGAUAUGCGAAUGCAGACUUCGGUUUGAUAGAGCAGAAGGCGCAGGUA [EX1 #15] (Eterna round: R97, puzzle: Exclusion 1) | – | – | – | 0.0585 µM | – | 0.0294 µM
UUAAUUACGGUGCUUUAACCUCACAUGAGGAUCACCCAUGUGCAGGAUAUCAGCUCGUUUAGAGCUGAGAAGGGCACUGCACCG [ExNG3/11-A2] (Eterna round: R96, puzzle: Exclusion NG 3) | – | – | – | 0.0139 µM | 0.00887 µM | 0.0135 µM
GCGAAAGCAAGCAAGUGAAACAUGAGGAUCACCCAUGUCCUCGUUUGCUCGUCUUAUAAGCUAUGCGAAAGCAUAGC [Sensor 3, v1 - 4] (puzzle: Sensor v3, turn-off variant 1) | 0.0129 µM | 0.105 µM | 0.0102 µM | – | – | –

Sequence | apparent KD of MS2 coat protein [1] | apparent KD of MS2 coat protein [2] | apparent KD of MS2 coat protein [3] | apparent KD of MS2 coat protein (input ligand: FMN 200 uM) | apparent KD of MS2 coat protein [4] | apparent KD of MS2 coat protein (input ligand: none)
GCCUUAUCCGUCAGGAUAUACAGCCGCUCCCUGUUGUAGAAGGGACAUGAGGAUCACCCAUGUACGUACCACCC [alecazam9] (Eterna round: R97, puzzle: Brourd's mod of Exclusion 4) | – | – | – | 0.0291 µM | – | 0.0311 µM
UUAUUGUAUGUAGGAUAUGCGUAUUAUUGUUAUGCAGAAGGACAUGAGGAUCACCCAUGUAUAUUAUUGUUAUAUAUUAUAUAU [Title] (Eterna round: R96, puzzle: Exclusion NG 1) | – | – | – | 0.0609 µM | 0.0227 µM | 0.0267 µM
AGUAACUAUCACGAAAGUGAUAGUUACACAAGCAGUGAAACAUGAGGAUCACCCAUGUCCUCAUUAGCUCGUCUUAU [Sensor 3 - 32] (puzzle: Sensor v3, turn-off variant 2) | 0.117 µM | 0.729 µM | 0.164 µM | – | – | –
CCUCGACAUGAGGAUCACCCAUGUCAGGAUAUUGUGUUUUGGGUUUUUUACCUUUAGGCAAGAAGGGAUGUGUG [LRO-Excl1-17] (puzzle: Exclusion 1) | – | 0.0161 µM | – | – | – | –
GACCUCACGGUCAGGAUAUCAGAACGUAAUGCGCAUGAGAAGGGACAUGAGGAUCACCCAUGUGGGCUCGUCGC [Maedvequ] (puzzle: Brourd's mod of Exclusion 4) | – | 0.0118 µM | – | – | – | –
GGUGCGUGUGUGAGGAUAUGCUGGUCCUUGGAUCAGCAGAAGGCACAUGAGGAUCACCCAUGUGGUGUCGUACC [salish99_Bmod_Ex4_029] (puzzle: Brourd's mod of Exclusion 4) | – | 0.232 µM | – | – | – | –
UUGUGCACGCUGCGGUCCUACAUGAGGAUCACCCAUGUGGUCUGGUGGCGUGGGUCGCCGGACUUGGCUCGUCUUGA [salish99_S_TOV1_R5_027] (Eterna round: R97, puzzle: Sensor, turn-off variant 1) | – | – | – | 0.0184 µM | – | 0.0188 µM
AUUUAGAGAGGAUAUAUAUUGUGAAACAUGAGGAUCACCCAUGUAAUAAUAUGGAUGUAAAUAGAAGGCUCAUUUA [Mat - Exclusion 5 - JL mod - D9] (puzzle: Exclusion 5) | – | 0.0413 µM | – | – | – | –
UAUUAGUUAGGAUAUACAUGAGGAUCACCCAUGUCACGGGUCCACUUGUCCUAUGCGUGUAGAAGGAGCGACCC [JL Ceriza mod 4] (puzzle: Exclusion 3) | – | 0.0192 µM | – | – | – | –
UCUCGCUGGCGAGGAUAUCCUGUGCGGUUCCGGCUCGUGUCUGUUACAUGAGGAUCACCCAUGUGGGAGAAGGUGCCUGUGGCC [Design 95] (Eterna round: R96, puzzle: Exclusion NG 2) | – | – | – | 0.0211 µM | 0.0156 µM | 0.021 µM
AUAACGUAGCGAGGAUAUACGCGAGAUCGUUGCGUAGAAGGUGUAUCGUUGGACUUGAGGAUCACCCAAGUGAUGAGUCCUUCC [Mutated MS2 EX1.20] (Eterna round: R96, puzzle: Exclusion NG 1) | – | – | – | 0.0438 µM | 0.0347 µM | 0.0407 µM
UUAAAUCAUGUAGGAUAUGCUUUGCGAAGCGAGGCAGAAGGACAUGAGGAUCACCCAUGUGCUAGCGUCCGAGUACGGAUGCAA [Mat - Exclusion NG 1 - Mod of JL - D62] (Eterna round: R96, puzzle: Exclusion NG 1) | – | – | – | 0.214 µM | 0.0626 µM | 0.0833 µM
UUGUUGUGUGUAGGAUAUGCAUAUUAUUAUUAUGCAGAAGGACAUGAGGAUCACCCAUGUAUAUUAUUAUUAUAUAUUAUAUAU [Title] (Eterna round: R96, puzzle: Exclusion NG 1) | – | – | – | – | 0.0226 µM | –
ACAUGAGGAUCACCCAUGUCGAGUACAUGAGGAUCACCCAUGUAGGAUAUGGUUCGCUUUGCGUGCUAGAAGGAUAUAUGUUGA [salish99_ExNG3_r04_511] (Eterna round: R96, puzzle: Exclusion NG 3) | – | – | – | 0.78 µM | 0.297 µM | 0.457 µM
GUAUGGUGAGGAUAUCGCCCUGCCUGCUCAAAGGCGAUGGACGAGAAGGCACAUGAGGAUCACCCAUGUCUGGG [Eternabot (L2) Solution 65] (Eterna round: R97, puzzle: Exclusion 4) | – | – | – | 0.161 µM | – | 0.539 µM
